Reference: publication PMC11083479, “A Multi-Faceted Binding Assessment of Aptamers Targeting the SARS-CoV-2 Spike Protein”
Read-outs that look alike come from different tables or passages of the source.

B1: SP6.41 (ssDNA)
DNA: CAACCCATGGTAGGTATTGCTTGGTAGGGATAGTGGGCTTG
B2: MSA1-T3 (ssDNA)
DNA: TCCGGTTAATTTATGCTCTACCCGTCCACCTACCGGA
B3: CoV2-RBD-4C (ssDNA)
DNA: ATCCAGAGTGACGCAGCATTTCATCGGGTCCAAAAGGGGCTGCTCGGGATTGCGGATATGGACACGT
B4: Aptamer-2 (ssDNA)
DNA: ATCCAGAGTGACGCAGCAATTACCGATGGCTTGTTTGTAATGTAGGGTTCCGTCGGATTGGACACGGTGGCTTAGT
B5: RBD-PB6 (XNA)
RNA: GGGGCCACCAACGACAUUUGUAAUUCCUGGACCGAUACUUCCGUCAGGACAGAGGUUGAUAUAAAUAGUGCCCAUGGAUCC
modifications: 2'-F-modified RNA
B6: CoV2-RBD-1C (ssDNA)
DNA: CAGCACCGACCTTGTGCTTTGGGAGTGCTGGTCCAAGGGCGTTAATGGACA
B7: CoV2-6C3 (ssDNA)
DNA: CGCAGCACCCAAGAACAAGGACTGCTTAGGATTGCGATAGGTTCGG
B8: nCoV-S1-A2 (ssDNA)
DNA: AGCAGCACAGAGGTCAGATGGCAGCTAAGCAGGCGGCTCACAAAACCATTCGCATGCGGCCCTATGCGTGCTACCGTGAA
B9: SP6.34C (ssDNA)
DNA: CCCATGGTAGGTATTGCTTGGTAGCGATAGTGGG
B10: MSA5-T4 (ssDNA)
DNA: CTTCCACGGGTTTGGCGTCGGGCCTGGCGGGGGGATAGTGCGGTGGAAG
B11: Aptamer-1 (ssDNA)
DNA: ATCCAGAGTGACGCAGCATCGAGTGGCTTGTTTGTAATGTAGGGTTCCGGTCGTGGGTTGGACACGGTGGCTTAGT

Experiments:
[1] = target: T1, SARS-CoV-2 trimeric spike, WT, His-tag (SARS-CoV-2 (WT), UniProt P0DTC2); assay: ELONA; conditions: protein: recombinant; tags: 8xHis (flow cytometry); His
[2] = target: SARS-CoV-2 spike S1, WT, His-tag (SARS-CoV-2 (WT), UniProt P0DTC2 16-685); assay: BLI; conditions: protein: recombinant; tags: His
[3] = target: SARS-CoV-2 spike RBD, WT, His-tag (SARS-CoV-2 (WT), UniProt P0DTC2 319-541); assay: BLI; BLI: PBS pH 7.4, 1 mM MgCl2 ([…]; flow cytometry 25 C ([…]
[4] = target: SARS-CoV-2 trimeric spike, WT, C-tag (SARS-CoV-2 (WT), UniProt P0DTC2); assay: as above; conditions: protein: recombinant; tags: C-tag
[5] = target: T1, SARS-CoV-2 trimeric spike, WT, His-tag; assay: BLI; conditions: protein: recombinant; tags: 8xHis (flow cytometry); His
ACE2, His-tag [6] = target: T2, ACE2, His-tag (UniProt Q9BYF1 18-740); assay: ELONA; conditions: protein: recombinant; tags: His; label: with or without biotin; SA-ATTO647N in flow cytometry
[7] = target: SARS-CoV-2 spike S1, WT, His-tag (SARS-CoV-2 (WT), UniProt P0DTC2 16-685); assay: BLI; conditions: protein: recombinant; tags: His; label: with or without biotin; SA-ATTO647N in flow cytometry
[8] = target: T3, SARS-CoV-2 trimeric spike, WT, His-tag (SARS-CoV-2 (WT), UniProt P0DTC2 14-1208); conditions: protein: recombinant, tags: 8xHis (flow cytometry), chain copies: 3, label: with or without biotin, SA-ATTO647N in flow cytometry
[9] = target: SARS-CoV-2 spike RBD, WT, C-tag (SARS-CoV-2 (WT), UniProt P0DTC2 319-591); assay: BLI; BLI: PBS pH 7.4, 1 mM MgCl2 ([…]; flow cytometry 25 C ([…]; conditions: protein: recombinant; tags: C-tag; label: with or without biotin; SA-ATTO647N in flow cytometry
[10] = target: SARS-CoV-2 spike RBD, WT, His-tag (SARS-CoV-2 (WT), UniProt P0DTC2 319-541); assay: as above; conditions: protein: recombinant; tags: His; label: with or without biotin; SA-ATTO647N in flow cytometry
[11] = target: SARS-CoV-2 spike RBD, WT, C-tag (SARS-CoV-2 (WT), UniProt P0DTC2 319-591); assay: as above
[12] = target: T1, SARS-CoV-2 trimeric spike, WT, His-tag; assay: flow cytometry; conditions: protein: recombinant, tags: 8xHis (flow cytometry)
[13] = target: SARS-CoV-2 trimeric spike, WT, C-tag (SARS-CoV-2 (WT), UniProt P0DTC2 16-1208); conditions: protein: recombinant; tags: C-tag; chain copies: 3; label: with or without biotin; SA-ATTO647N in flow cytometry
[14] = target: T1, SARS-CoV-2 trimeric spike, WT, His-tag; assay: flow cytometry; 37 C; non-binding control; conditions: protein: recombinant, tags: 8xHis (flow cytometry)
[15] = target: T3, SARS-CoV-2 trimeric spike, WT, His-tag; assay: ELONA; abolished by 0.1 mg/mL dextran sulfate; conditions: protein: recombinant, tags: 8xHis (flow cytometry), chain copies: 3, label: with or without biotin, SA-ATTO647N in flow cytometry
ACE2, His-tag [16] = target: T2, ACE2, His-tag; assay: ELONA; 200 nM aptamer; BLI: PBS pH 7.4, 1 mM MgCl2 (MSA aptamers: 50 mM HEPES pH 7.4, 6 mM KCl, 150 mM NaCl, 2.5 mM CaCl2, 2.5 mM MgCl2), 0.1 mg/mL BSA, 0.02% Tween-20; ELONA 25 C in; conditions: protein: recombinant; tags: His; label: with or without biotin; SA-ATTO647N in flow cytometry
[17] = target: chemokine CCL17, untagged (human, UniProt Q92583 24-94); assay: as above; conditions: protein: recombinant; tags: none; label: with or without biotin; SA-ATTO647N in flow cytometry
Chain of chemokine CCL17, untagged (Q92583 24-94): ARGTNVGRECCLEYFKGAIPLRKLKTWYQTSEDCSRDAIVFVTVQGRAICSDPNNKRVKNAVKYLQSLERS

T2 sequence (Q9BYF1 18-740): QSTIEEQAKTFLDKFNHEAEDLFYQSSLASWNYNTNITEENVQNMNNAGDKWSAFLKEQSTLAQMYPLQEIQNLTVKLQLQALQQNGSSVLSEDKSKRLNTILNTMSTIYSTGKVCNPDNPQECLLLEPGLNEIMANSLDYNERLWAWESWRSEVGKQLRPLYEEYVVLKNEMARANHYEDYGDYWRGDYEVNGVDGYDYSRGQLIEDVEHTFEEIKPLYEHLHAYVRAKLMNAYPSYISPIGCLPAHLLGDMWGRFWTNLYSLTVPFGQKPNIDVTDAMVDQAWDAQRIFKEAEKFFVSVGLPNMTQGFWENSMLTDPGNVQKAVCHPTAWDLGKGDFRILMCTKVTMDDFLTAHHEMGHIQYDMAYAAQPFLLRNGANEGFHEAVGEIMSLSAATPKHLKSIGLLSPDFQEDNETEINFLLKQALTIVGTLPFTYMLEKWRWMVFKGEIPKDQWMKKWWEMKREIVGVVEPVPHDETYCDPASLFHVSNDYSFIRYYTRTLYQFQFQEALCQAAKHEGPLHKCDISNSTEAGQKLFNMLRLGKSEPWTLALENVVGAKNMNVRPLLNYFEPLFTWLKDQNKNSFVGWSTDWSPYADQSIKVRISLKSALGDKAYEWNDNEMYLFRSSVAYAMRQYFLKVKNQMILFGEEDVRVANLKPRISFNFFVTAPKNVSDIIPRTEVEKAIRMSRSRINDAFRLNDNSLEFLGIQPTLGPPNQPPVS

Binder	binding result [2]	binding result [3]	binding result [4]	binding result [7]	binding result [9]	other results
B1	no binding	no binding	binds	–	–	binding result [1]: binds
B2	–	no binding	no binding	–	–	binding result [5]: binds
B3	–	–	–	binds	no binding	binding result (ACE2, His-tag [6]): binds; binding result [8]: binds; binding result [10]: binds
B4	binds	binds	no binding	–	–	binding result [5]: binds
B5	binds	binds	binds	–	–	binding result [11]: binds; binding result [12]: binds
B6	–	–	–	binds	no binding	binding result [8]: binds; binding result [10]: binds
B7	–	–	–	binds	no binding	binding result [13]: binds; binding result [8]: binds; binding result [10]: binds
B8	–	no binding	–	–	–	–
B9	–	–	–	–	–	binding result [14]: no binding
B10	–	–	–	binds	no binding	binding result [13]: no binding; binding result [15]: binds; binding result (ACE2, His-tag [16]): no binding; binding result [17]: no binding
B11	binds	binds	no binding	–	–	binding result [5]: binds
